Test results from the supplement of paper PMC10065799, “High-throughput profiling of sequence recognition by tyrosine kinases and SH2 domains using bacterial peptide display” (eLife, 2023).
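Further: 11-residue human phosphosite peptides and single-mutation variants displayed on the E. coli surface, counted by deep sequencing, each peptide's frequency after selection divided by its frequency in the unselected input library; frequency after pTyr selection over input frequency; kinase dosed for 20-30% of maximal phosphorylation in three min.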

Each sequence was assayed against Hck (UniProt P08631) (assay: phosphorylation enrichment, bacterial display (enrichment ratio); higher = better substrate or ligand; peptides without Tyr show the background).
Chain of Hck (P08631 whole entry, looked up): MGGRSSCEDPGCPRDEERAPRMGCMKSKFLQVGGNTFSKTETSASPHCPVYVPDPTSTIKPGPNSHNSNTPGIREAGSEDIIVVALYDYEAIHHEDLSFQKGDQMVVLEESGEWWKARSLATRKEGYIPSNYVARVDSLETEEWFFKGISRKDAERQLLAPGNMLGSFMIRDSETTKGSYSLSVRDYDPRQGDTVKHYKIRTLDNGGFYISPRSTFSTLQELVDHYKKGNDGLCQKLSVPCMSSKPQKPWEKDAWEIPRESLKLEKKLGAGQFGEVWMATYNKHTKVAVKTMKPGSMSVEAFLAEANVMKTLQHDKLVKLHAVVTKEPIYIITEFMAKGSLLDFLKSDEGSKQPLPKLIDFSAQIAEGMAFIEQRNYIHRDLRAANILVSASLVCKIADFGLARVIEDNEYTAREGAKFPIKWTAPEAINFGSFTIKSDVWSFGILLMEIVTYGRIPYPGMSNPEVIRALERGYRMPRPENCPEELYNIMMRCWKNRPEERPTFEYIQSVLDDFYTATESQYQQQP
With ILDEAYVMASM [EGFR_Y764_V769M] the phosphorylation enrichment was 0.528. With VFSATYHPDHW [EFCAB12_Y544_P541S_YF] the phosphorylation enrichment was 0.466. Sequence PTYKHYANSTQ [SLC12A3_Y70_E68K] has a phosphorylation enrichment of 0.434. WKGSWYSMRKM [FGB_Y475] was tested, and the phosphorylation enrichment was 0.523. Work on VIESSYQVAKA [CPT1B_Y534] yielded a phosphorylation enrichment of 0.577. For FLRKEYGGVNV [CBR3_Y81_L84V], the phosphorylation enrichment was 0.425. With DGTGRYLCNAC [GATA5_Y208_H207R] the phosphorylation enrichment was 0.375. For NTADFYDLFGG [PTPN11_Y63_G60A_YF], the phosphorylation enrichment was 3.02. KNCFKYYMSDD [ATRX_Y203] showed a phosphorylation enrichment of 0.595. HNLNFYKKTTN [FGFR3_Y648_D646N_YF] showed a phosphorylation enrichment of 0.572. PTFEHYANSTQ [SLC12A3_Y70_YF] showed a phosphorylation enrichment of 0.598. For LHSEAYLKFIE [PBRM1_Y1610_YF], the phosphorylation enrichment was 0.813. EGWQVYRLGTR [MISP_Y95_A99T] showed a phosphorylation enrichment of 1.03. Sequence PLKALYLQQRP [ATM_Y2969] has a phosphorylation enrichment of 0.642. In the case of DKNSSYFADWL [TUBB8_Y340], the phosphorylation enrichment is reported as 0.492. HFEDGYPGGSD [CTNND1_Y221_YF] showed a phosphorylation enrichment of 0.756. In the case of SSNPEYLSASD [INSR_Y999], the phosphorylation enrichment is reported as 0.462. EEAAGCAQESQ [CAMKV_Y491_Y491C] was tested, and the phosphorylation enrichment was 0.575. For YTNELYMMMRD [FGFR1_Y730_C725Y], the phosphorylation enrichment was 2.85. LAEMNYVHRDL [EPHB1_Y740] showed a phosphorylation enrichment of 0.362. SVVVTYEPPEV [TP53_Y220_P219T] gave a phosphorylation enrichment of 0.697. With SENAFYLSPHI [COL6A3_Y2827_D2831H] the phosphorylation enrichment was 0.863. For PYRSIYFSSPK [MPG_Y75], the phosphorylation enrichment was 1.09. In the case of TEALYYTDDTA [ADPRS_Y75], the phosphorylation enrichment is reported as 1.82. SKDSAYVTWEP showed a phosphorylation enrichment of 1.32. Work on GVLDIYGFEIL [MYO1A_Y382] yielded a phosphorylation enrichment of 1.59. Work on AGADGYGFLAP [FOXL2_Y186_YF] yielded a phosphorylation enrichment of 0.71. With VDHFGYTKDDK [APOB_Y740] the phosphorylation enrichment was 0.463. PRAEWYRDDLL [MYOM2_Y317_V321L] showed a phosphorylation enrichment of 0.681. With AVVEPYNSLLT [TUBA1A_Y185_I188L] the phosphorylation enrichment was 0.427. Sequence FGCTFYNQAIM [MCCC2_Y196_R193C] has a phosphorylation enrichment of 0.597. In the case of IITDYYVDMKF [MPP4_Y567_V562I], the phosphorylation enrichment is reported as 1.17. ATRDVYNPFET [SCAMP3_Y41_L38R] was tested, and the phosphorylation enrichment was 1.06.

These sequences were tested against Jak2 (UniProt O60674) in the same assay as above.
Chain of Jak2 (O60674 whole entry, looked up): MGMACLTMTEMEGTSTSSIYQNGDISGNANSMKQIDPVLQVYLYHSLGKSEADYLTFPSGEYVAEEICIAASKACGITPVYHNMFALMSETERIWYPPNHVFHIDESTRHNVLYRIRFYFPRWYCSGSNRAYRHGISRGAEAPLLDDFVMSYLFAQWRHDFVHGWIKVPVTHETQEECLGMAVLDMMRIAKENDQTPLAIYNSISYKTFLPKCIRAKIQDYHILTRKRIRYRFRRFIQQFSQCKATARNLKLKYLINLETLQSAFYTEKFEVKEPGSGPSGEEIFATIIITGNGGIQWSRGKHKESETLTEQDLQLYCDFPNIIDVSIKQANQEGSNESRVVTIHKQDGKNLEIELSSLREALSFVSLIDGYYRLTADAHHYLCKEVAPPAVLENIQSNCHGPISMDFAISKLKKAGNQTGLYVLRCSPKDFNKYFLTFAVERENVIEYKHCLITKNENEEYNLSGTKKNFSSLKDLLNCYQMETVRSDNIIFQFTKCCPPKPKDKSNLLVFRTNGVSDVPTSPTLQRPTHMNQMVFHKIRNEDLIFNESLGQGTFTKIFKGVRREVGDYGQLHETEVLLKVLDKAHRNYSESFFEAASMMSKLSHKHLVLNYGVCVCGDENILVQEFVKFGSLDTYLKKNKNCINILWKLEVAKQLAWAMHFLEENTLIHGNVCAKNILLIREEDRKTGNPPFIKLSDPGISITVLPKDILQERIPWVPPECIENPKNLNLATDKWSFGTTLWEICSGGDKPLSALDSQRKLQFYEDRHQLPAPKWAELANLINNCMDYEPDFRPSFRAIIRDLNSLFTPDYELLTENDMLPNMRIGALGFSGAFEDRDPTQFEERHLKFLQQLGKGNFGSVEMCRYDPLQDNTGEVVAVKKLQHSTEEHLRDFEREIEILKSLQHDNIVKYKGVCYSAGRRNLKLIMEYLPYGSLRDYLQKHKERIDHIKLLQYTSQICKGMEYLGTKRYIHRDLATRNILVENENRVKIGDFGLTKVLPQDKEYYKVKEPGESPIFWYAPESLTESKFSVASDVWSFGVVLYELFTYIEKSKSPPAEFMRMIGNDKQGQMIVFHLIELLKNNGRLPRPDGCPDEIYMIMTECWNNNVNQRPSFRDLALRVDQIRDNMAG
In the case of ILDEAYVMASM [EGFR_Y764_V769M], the phosphorylation enrichment is reported as 0.965. VFSATYHPDHW [EFCAB12_Y544_P541S_YF] gave a phosphorylation enrichment of 0.807. PTYKHYANSTQ [SLC12A3_Y70_E68K] gave a phosphorylation enrichment of 0.593. Sequence WKGSWYSMRKM [FGB_Y475] has a phosphorylation enrichment of 0.847. VIESSYQVAKA [CPT1B_Y534] gave a phosphorylation enrichment of 0.535. Work on FLRKEYGGVNV [CBR3_Y81_L84V] yielded a phosphorylation enrichment of 0.598. Work on DGTGRYLCNAC [GATA5_Y208_H207R] yielded a phosphorylation enrichment of 0.455. With NTADFYDLFGG [PTPN11_Y63_G60A_YF] the phosphorylation enrichment was 1.2. Work on KNCFKYYMSDD [ATRX_Y203] yielded a phosphorylation enrichment of 1.16. Sequence HNLNFYKKTTN [FGFR3_Y648_D646N_YF] has a phosphorylation enrichment of 0.832. For PTFEHYANSTQ [SLC12A3_Y70_YF], the phosphorylation enrichment was 0.742. In the case of LHSEAYLKFIE [PBRM1_Y1610_YF], the phosphorylation enrichment is reported as 1.37. EGWQVYRLGTR [MISP_Y95_A99T] gave a phosphorylation enrichment of 0.733. In the case of PLKALYLQQRP [ATM_Y2969], the phosphorylation enrichment is reported as 1.17. DKNSSYFADWL [TUBB8_Y340] gave a phosphorylation enrichment of 1.39. HFEDGYPGGSD [CTNND1_Y221_YF] showed a phosphorylation enrichment of 0.955. Work on SSNPEYLSASD [INSR_Y999] yielded a phosphorylation enrichment of 0.961. Work on EEAAGCAQESQ [CAMKV_Y491_Y491C] yielded a phosphorylation enrichment of 1.06. YTNELYMMMRD [FGFR1_Y730_C725Y] was tested, and the phosphorylation enrichment was 1.35. LAEMNYVHRDL [EPHB1_Y740] gave a phosphorylation enrichment of 1.4. SVVVTYEPPEV [TP53_Y220_P219T] gave a phosphorylation enrichment of 0.969. SENAFYLSPHI [COL6A3_Y2827_D2831H] showed a phosphorylation enrichment of 3.25. PYRSIYFSSPK [MPG_Y75] gave a phosphorylation enrichment of 0.657. TEALYYTDDTA [ADPRS_Y75] showed a phosphorylation enrichment of 0.833. With SKDSAYVTWEP the phosphorylation enrichment was 0.914. With GVLDIYGFEIL [MYO1A_Y382] the phosphorylation enrichment was 0.978. AGADGYGFLAP [FOXL2_Y186_YF] was tested, and the phosphorylation enrichment was 0.857. In the case of VDHFGYTKDDK [APOB_Y740], the phosphorylation enrichment is reported as 0.762. PRAEWYRDDLL [MYOM2_Y317_V321L] was tested, and the phosphorylation enrichment was 0.952. AVVEPYNSLLT [TUBA1A_Y185_I188L] gave a phosphorylation enrichment of 1.19. FGCTFYNQAIM [MCCC2_Y196_R193C] gave a phosphorylation enrichment of 1.32. Sequence IITDYYVDMKF [MPP4_Y567_V562I] has a phosphorylation enrichment of 2.52. ATRDVYNPFET [SCAMP3_Y41_L38R] gave a phosphorylation enrichment of 0.901.

Each sequence was assayed against MERTK (UniProt Q12866) in the same assay as above.
Chain of MERTK (Q12866 whole entry, looked up): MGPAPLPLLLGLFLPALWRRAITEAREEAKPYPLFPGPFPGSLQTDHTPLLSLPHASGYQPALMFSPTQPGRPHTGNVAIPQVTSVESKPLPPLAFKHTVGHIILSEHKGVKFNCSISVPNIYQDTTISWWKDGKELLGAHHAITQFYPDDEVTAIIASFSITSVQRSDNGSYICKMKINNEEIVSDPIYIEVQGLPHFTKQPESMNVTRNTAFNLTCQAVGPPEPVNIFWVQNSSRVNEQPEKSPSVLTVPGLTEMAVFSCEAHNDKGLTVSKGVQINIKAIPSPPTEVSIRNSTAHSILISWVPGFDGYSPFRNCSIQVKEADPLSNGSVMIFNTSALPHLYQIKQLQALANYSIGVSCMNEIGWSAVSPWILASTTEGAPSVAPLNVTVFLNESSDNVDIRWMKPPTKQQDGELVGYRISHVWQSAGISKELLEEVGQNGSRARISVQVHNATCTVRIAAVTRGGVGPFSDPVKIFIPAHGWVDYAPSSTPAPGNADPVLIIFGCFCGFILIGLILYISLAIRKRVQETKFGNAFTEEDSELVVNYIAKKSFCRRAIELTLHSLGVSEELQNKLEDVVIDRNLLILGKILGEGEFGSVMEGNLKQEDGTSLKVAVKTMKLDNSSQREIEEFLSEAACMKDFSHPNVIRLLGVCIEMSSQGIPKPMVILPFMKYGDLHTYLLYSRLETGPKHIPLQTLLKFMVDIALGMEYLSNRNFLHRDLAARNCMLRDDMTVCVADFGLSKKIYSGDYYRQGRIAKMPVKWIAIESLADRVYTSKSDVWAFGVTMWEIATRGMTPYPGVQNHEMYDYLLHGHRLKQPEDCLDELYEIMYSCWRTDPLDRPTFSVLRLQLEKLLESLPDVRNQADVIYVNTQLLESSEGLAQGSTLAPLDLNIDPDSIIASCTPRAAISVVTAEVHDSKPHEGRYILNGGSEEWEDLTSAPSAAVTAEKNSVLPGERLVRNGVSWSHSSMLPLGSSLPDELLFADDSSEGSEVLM
ILDEAYVMASM [EGFR_Y764_V769M] was tested, and the phosphorylation enrichment was 0.447. Sequence VFSATYHPDHW [EFCAB12_Y544_P541S_YF] has a phosphorylation enrichment of 0.492. PTYKHYANSTQ [SLC12A3_Y70_E68K] gave a phosphorylation enrichment of 0.442. In the case of WKGSWYSMRKM [FGB_Y475], the phosphorylation enrichment is reported as 0.499. Sequence VIESSYQVAKA [CPT1B_Y534] has a phosphorylation enrichment of 0.44. In the case of FLRKEYGGVNV [CBR3_Y81_L84V], the phosphorylation enrichment is reported as 0.471. DGTGRYLCNAC [GATA5_Y208_H207R] was tested, and the phosphorylation enrichment was 0.383. Work on NTADFYDLFGG [PTPN11_Y63_G60A_YF] yielded a phosphorylation enrichment of 2.3. KNCFKYYMSDD [ATRX_Y203] showed a phosphorylation enrichment of 0.496. For HNLNFYKKTTN [FGFR3_Y648_D646N_YF], the phosphorylation enrichment was 0.605. In the case of PTFEHYANSTQ [SLC12A3_Y70_YF], the phosphorylation enrichment is reported as 0.771. In the case of LHSEAYLKFIE [PBRM1_Y1610_YF], the phosphorylation enrichment is reported as 0.556. EGWQVYRLGTR [MISP_Y95_A99T] showed a phosphorylation enrichment of 0.325. Work on PLKALYLQQRP [ATM_Y2969] yielded a phosphorylation enrichment of 0.695. Sequence DKNSSYFADWL [TUBB8_Y340] has a phosphorylation enrichment of 1.15. HFEDGYPGGSD [CTNND1_Y221_YF] gave a phosphorylation enrichment of 0.598. With SSNPEYLSASD [INSR_Y999] the phosphorylation enrichment was 0.476. With EEAAGCAQESQ [CAMKV_Y491_Y491C] the phosphorylation enrichment was 0.625. YTNELYMMMRD [FGFR1_Y730_C725Y] gave a phosphorylation enrichment of 5.02. Sequence LAEMNYVHRDL [EPHB1_Y740] has a phosphorylation enrichment of 0.659. Work on SVVVTYEPPEV [TP53_Y220_P219T] yielded a phosphorylation enrichment of 0.779. SENAFYLSPHI [COL6A3_Y2827_D2831H] showed a phosphorylation enrichment of 0.696. Work on PYRSIYFSSPK [MPG_Y75] yielded a phosphorylation enrichment of 0.835. Sequence TEALYYTDDTA [ADPRS_Y75] has a phosphorylation enrichment of 4.21. In the case of SKDSAYVTWEP, the phosphorylation enrichment is reported as 1.14. Work on GVLDIYGFEIL [MYO1A_Y382] yielded a phosphorylation enrichment of 0.41. AGADGYGFLAP [FOXL2_Y186_YF] showed a phosphorylation enrichment of 0.618. With VDHFGYTKDDK [APOB_Y740] the phosphorylation enrichment was 0.395. Sequence PRAEWYRDDLL [MYOM2_Y317_V321L] has a phosphorylation enrichment of 0.511. AVVEPYNSLLT [TUBA1A_Y185_I188L] showed a phosphorylation enrichment of 0.454. For FGCTFYNQAIM [MCCC2_Y196_R193C], the phosphorylation enrichment was 0.365. Work on IITDYYVDMKF [MPP4_Y567_V562I] yielded a phosphorylation enrichment of 1.22. ATRDVYNPFET [SCAMP3_Y41_L38R] showed a phosphorylation enrichment of 0.485.

These sequences were tested on c-Abl (mouse) in the same assay as above.
With ILDEAYVMASM [EGFR_Y764_V769M] the phosphorylation enrichment was 0.746. For VFSATYHPDHW [EFCAB12_Y544_P541S_YF], the phosphorylation enrichment was 0.676. In the case of PTYKHYANSTQ [SLC12A3_Y70_E68K], the phosphorylation enrichment is reported as 0.44. WKGSWYSMRKM [FGB_Y475] showed a phosphorylation enrichment of 0.71. VIESSYQVAKA [CPT1B_Y534] gave a phosphorylation enrichment of 0.558. FLRKEYGGVNV [CBR3_Y81_L84V] showed a phosphorylation enrichment of 0.612. Work on DGTGRYLCNAC [GATA5_Y208_H207R] yielded a phosphorylation enrichment of 0.523. With NTADFYDLFGG [PTPN11_Y63_G60A_YF] the phosphorylation enrichment was 0.8. Work on KNCFKYYMSDD [ATRX_Y203] yielded a phosphorylation enrichment of 0.961. With HNLNFYKKTTN [FGFR3_Y648_D646N_YF] the phosphorylation enrichment was 0.642. For PTFEHYANSTQ [SLC12A3_Y70_YF], the phosphorylation enrichment was 0.742. For LHSEAYLKFIE [PBRM1_Y1610_YF], the phosphorylation enrichment was 0.886. EGWQVYRLGTR [MISP_Y95_A99T] showed a phosphorylation enrichment of 0.525. With PLKALYLQQRP [ATM_Y2969] the phosphorylation enrichment was 0.934. Sequence DKNSSYFADWL [TUBB8_Y340] has a phosphorylation enrichment of 0.746. Work on HFEDGYPGGSD [CTNND1_Y221_YF] yielded a phosphorylation enrichment of 0.485. SSNPEYLSASD [INSR_Y999] gave a phosphorylation enrichment of 0.719. EEAAGCAQESQ [CAMKV_Y491_Y491C] was tested, and the phosphorylation enrichment was 1.18. For YTNELYMMMRD [FGFR1_Y730_C725Y], the phosphorylation enrichment was 0.766. LAEMNYVHRDL [EPHB1_Y740] showed a phosphorylation enrichment of 1.15. In the case of SVVVTYEPPEV [TP53_Y220_P219T], the phosphorylation enrichment is reported as 0.961. With SENAFYLSPHI [COL6A3_Y2827_D2831H] the phosphorylation enrichment was 1.96. PYRSIYFSSPK [MPG_Y75] gave a phosphorylation enrichment of 0.887. TEALYYTDDTA [ADPRS_Y75] showed a phosphorylation enrichment of 0.633. For SKDSAYVTWEP, the phosphorylation enrichment was 0.702. Work on GVLDIYGFEIL [MYO1A_Y382] yielded a phosphorylation enrichment of 0.695. Sequence AGADGYGFLAP [FOXL2_Y186_YF] has a phosphorylation enrichment of 0.698. VDHFGYTKDDK [APOB_Y740] was tested, and the phosphorylation enrichment was 0.67. With PRAEWYRDDLL [MYOM2_Y317_V321L] the phosphorylation enrichment was 0.798. With AVVEPYNSLLT [TUBA1A_Y185_I188L] the phosphorylation enrichment was 0.579. FGCTFYNQAIM [MCCC2_Y196_R193C] showed a phosphorylation enrichment of 0.968. IITDYYVDMKF [MPP4_Y567_V562I] was tested, and the phosphorylation enrichment was 0.856. Work on ATRDVYNPFET [SCAMP3_Y41_L38R] yielded a phosphorylation enrichment of 0.617.
